According to publication PMC12416549 (2024):

Target: T1, TNFR1 (Homo sapiens, UniProt P19438)
T1 chain: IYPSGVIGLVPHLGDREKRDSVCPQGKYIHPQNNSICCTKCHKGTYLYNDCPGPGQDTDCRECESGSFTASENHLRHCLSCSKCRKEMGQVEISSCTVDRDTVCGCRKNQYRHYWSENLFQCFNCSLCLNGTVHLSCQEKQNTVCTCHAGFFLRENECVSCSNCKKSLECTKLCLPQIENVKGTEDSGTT
Experiment: yeast display SC50

B1: E86C (designed binder)
chain: SMEEEVEKAAKEYEKKKKEAIEKHLEKLKAKDKEAAERFLKELEEAAKEYAKDEAKTMSEEEAKRRAKKYKEKVLLSELSEEEQKCIKEAEEKLVRTILKYVEEAAK
- apparent Kd (screen): 0.653 nM

B2: L94C (designed binder)
chain: SMEEEVEKAAKEYEKKKKEAIEKHLEKLKAKDKEAAERFLKELEEAAKEYAKDEAKTMSEEEAKRRAKKYKEKVLLSELSEEEQKEIKEAEEKCVRTILKYVEEAAK
- apparent Kd (screen): 2.73 nM

B3: A67W (designed binder)
chain: SMEEEVEKAAKEYEKKKKEAIEKHLEKLKAKDKEAAERFLKELEEAAKEYAKDEAKTMSEEEAKRRWKKYKEKVLLSELSEEEQKEIKEAEEKLVRTILKYVEEAAK
- apparent Kd (screen): 10.4 nM

B4: L76H (designed binder)
chain: SMEEEVEKAAKEYEKKKKEAIEKHLEKLKAKDKEAAERFLKELEEAAKEYAKDEAKTMSEEEAKRRAKKYKEKVLHSELSEEEQKEIKEAEEKLVRTILKYVEEAAK
- apparent Kd (screen): 1.69 nM

B5: K85E (designed binder)
chain: SMEEEVEKAAKEYEKKKKEAIEKHLEKLKAKDKEAAERFLKELEEAAKEYAKDEAKTMSEEEAKRRAKKYKEKVLLSELSEEEQEEIKEAEEKLVRTILKYVEEAAK
- apparent Kd (screen): 0.446 nM

B6: L99Q (designed binder)
chain: SMEEEVEKAAKEYEKKKKEAIEKHLEKLKAKDKEAAERFLKELEEAAKEYAKDEAKTMSEEEAKRRAKKYKEKVLLSELSEEEQKEIKEAEEKLVRTIQKYVEEAAK
- apparent Kd (screen): 11.4 nM

B7: K56W (designed binder)
chain: SMEEEVEKAAKEYEKKKKEAIEKHLEKLKAKDKEAAERFLKELEEAAKEYAKDEAWTMSEEEAKRRAKKYKEKVLLSELSEEEQKEIKEAEEKLVRTILKYVEEAAK
- apparent Kd (screen): 11.4 nM

B8: I21M (designed binder)
chain: SMEEEVEKAAKEYEKKKKEAMEKHLEKLKAKDKEAAERFLKELEEAAKEYAKDEAKTMSEEEAKRRAKKYKEKVLLSELSEEEQKEIKEAEEKLVRTILKYVEEAAK
- apparent Kd (screen): 0.539 nM

B9: K93N (designed binder)
chain: SMEEEVEKAAKEYEKKKKEAIEKHLEKLKAKDKEAAERFLKELEEAAKEYAKDEAKTMSEEEAKRRAKKYKEKVLLSELSEEEQKEIKEAEENLVRTILKYVEEAAK
- apparent Kd (screen): 1.27 nM

B10: M58F (designed binder)
chain: SMEEEVEKAAKEYEKKKKEAIEKHLEKLKAKDKEAAERFLKELEEAAKEYAKDEAKTFSEEEAKRRAKKYKEKVLLSELSEEEQKEIKEAEEKLVRTILKYVEEAAK
- apparent Kd (screen): 11.4 nM

B11: V102K (designed binder)
chain: SMEEEVEKAAKEYEKKKKEAIEKHLEKLKAKDKEAAERFLKELEEAAKEYAKDEAKTMSEEEAKRRAKKYKEKVLLSELSEEEQKEIKEAEEKLVRTILKYKEEAAK
- apparent Kd (screen): 1.27 nM

B12: K52Q (designed binder)
chain: SMEEEVEKAAKEYEKKKKEAIEKHLEKLKAKDKEAAERFLKELEEAAKEYAQDEAKTMSEEEAKRRAKKYKEKVLLSELSEEEQKEIKEAEEKLVRTILKYVEEAAK
- apparent Kd (screen): 0.718 nM

B13: K56R (designed binder)
chain: SMEEEVEKAAKEYEKKKKEAIEKHLEKLKAKDKEAAERFLKELEEAAKEYAKDEARTMSEEEAKRRAKKYKEKVLLSELSEEEQKEIKEAEEKLVRTILKYVEEAAK
- apparent Kd (screen): 1.54 nM

B14: R65I (designed binder)
chain: SMEEEVEKAAKEYEKKKKEAIEKHLEKLKAKDKEAAERFLKELEEAAKEYAKDEAKTMSEEEAKIRAKKYKEKVLLSELSEEEQKEIKEAEEKLVRTILKYVEEAAK
- apparent Kd (screen): 1.4 nM

B15: K48V (designed binder)
chain: SMEEEVEKAAKEYEKKKKEAIEKHLEKLKAKDKEAAERFLKELEEAAVEYAKDEAKTMSEEEAKRRAKKYKEKVLLSELSEEEQKEIKEAEEKLVRTILKYVEEAAK
- apparent Kd (screen): 0.653 nM

B16: L43P (designed binder)
chain: SMEEEVEKAAKEYEKKKKEAIEKHLEKLKAKDKEAAERFLKEPEEAAKEYAKDEAKTMSEEEAKRRAKKYKEKVLLSELSEEEQKEIKEAEEKLVRTILKYVEEAAK
- apparent Kd (screen): 12.5 nM

B17: E34T (designed binder)
chain: SMEEEVEKAAKEYEKKKKEAIEKHLEKLKAKDKTAAERFLKELEEAAKEYAKDEAKTMSEEEAKRRAKKYKEKVLLSELSEEEQKEIKEAEEKLVRTILKYVEEAAK
- apparent Kd (screen): 0.446 nM

B18: L40V (designed binder)
chain: SMEEEVEKAAKEYEKKKKEAIEKHLEKLKAKDKEAAERFVKELEEAAKEYAKDEAKTMSEEEAKRRAKKYKEKVLLSELSEEEQKEIKEAEEKLVRTILKYVEEAAK
- apparent Kd (screen): 0.49 nM

B19: K15G (designed binder)
chain: SMEEEVEKAAKEYEGKKKEAIEKHLEKLKAKDKEAAERFLKELEEAAKEYAKDEAKTMSEEEAKRRAKKYKEKVLLSELSEEEQKEIKEAEEKLVRTILKYVEEAAK
- apparent Kd (screen): 0.653 nM

B20: K73S (designed binder)
chain: SMEEEVEKAAKEYEKKKKEAIEKHLEKLKAKDKEAAERFLKELEEAAKEYAKDEAKTMSEEEAKRRAKKYKESVLLSELSEEEQKEIKEAEEKLVRTILKYVEEAAK
- apparent Kd (screen): 9.41 nM

B21: T97W (designed binder)
chain: SMEEEVEKAAKEYEKKKKEAIEKHLEKLKAKDKEAAERFLKELEEAAKEYAKDEAKTMSEEEAKRRAKKYKEKVLLSELSEEEQKEIKEAEEKLVRWILKYVEEAAK
- apparent Kd (screen): 2.48 nM

B22: V74I (designed binder)
chain: SMEEEVEKAAKEYEKKKKEAIEKHLEKLKAKDKEAAERFLKELEEAAKEYAKDEAKTMSEEEAKRRAKKYKEKILLSELSEEEQKEIKEAEEKLVRTILKYVEEAAK
- apparent Kd (screen): 0.446 nM

B23: L94N (designed binder)
chain: SMEEEVEKAAKEYEKKKKEAIEKHLEKLKAKDKEAAERFLKELEEAAKEYAKDEAKTMSEEEAKRRAKKYKEKVLLSELSEEEQKEIKEAEEKNVRTILKYVEEAAK
- apparent Kd (screen): 20.2 nM

B24: E22S (designed binder)
chain: SMEEEVEKAAKEYEKKKKEAISKHLEKLKAKDKEAAERFLKELEEAAKEYAKDEAKTMSEEEAKRRAKKYKEKVLLSELSEEEQKEIKEAEEKLVRTILKYVEEAAK
- apparent Kd (screen): 0.539 nM

B25: M58S (designed binder)
chain: SMEEEVEKAAKEYEKKKKEAIEKHLEKLKAKDKEAAERFLKELEEAAKEYAKDEAKTSSEEEAKRRAKKYKEKVLLSELSEEEQKEIKEAEEKLVRTILKYVEEAAK
- apparent Kd (screen): 4.39 nM

B26: E26C (designed binder)
chain: SMEEEVEKAAKEYEKKKKEAIEKHLCKLKAKDKEAAERFLKELEEAAKEYAKDEAKTMSEEEAKRRAKKYKEKVLLSELSEEEQKEIKEAEEKLVRTILKYVEEAAK
- apparent Kd (screen): 0.49 nM

B27: E22R (designed binder)
chain: SMEEEVEKAAKEYEKKKKEAIRKHLEKLKAKDKEAAERFLKELEEAAKEYAKDEAKTMSEEEAKRRAKKYKEKVLLSELSEEEQKEIKEAEEKLVRTILKYVEEAAK
- apparent Kd (screen): 0.446 nM

B28: A67I (designed binder)
chain: SMEEEVEKAAKEYEKKKKEAIEKHLEKLKAKDKEAAERFLKELEEAAKEYAKDEAKTMSEEEAKRRIKKYKEKVLLSELSEEEQKEIKEAEEKLVRTILKYVEEAAK
- apparent Kd (screen): 7.07 nM

B29: R38H (designed binder)
chain: SMEEEVEKAAKEYEKKKKEAIEKHLEKLKAKDKEAAEHFLKELEEAAKEYAKDEAKTMSEEEAKRRAKKYKEKVLLSELSEEEQKEIKEAEEKLVRTILKYVEEAAK
- apparent Kd (screen): 1.4 nM

B30: E60F (designed binder)
chain: SMEEEVEKAAKEYEKKKKEAIEKHLEKLKAKDKEAAERFLKELEEAAKEYAKDEAKTMSFEEAKRRAKKYKEKVLLSELSEEEQKEIKEAEEKLVRTILKYVEEAAK
- apparent Kd (screen): 0.956 nM

B31: A9D (designed binder)
chain: SMEEEVEKDAKEYEKKKKEAIEKHLEKLKAKDKEAAERFLKELEEAAKEYAKDEAKTMSEEEAKRRAKKYKEKVLLSELSEEEQKEIKEAEEKLVRTILKYVEEAAK
- apparent Kd (screen): 1.16 nM

B32: K107R (designed binder)
chain: SMEEEVEKAAKEYEKKKKEAIEKHLEKLKAKDKEAAERFLKELEEAAKEYAKDEAKTMSEEEAKRRAKKYKEKVLLSELSEEEQKEIKEAEEKLVRTILKYVEEAAR
- apparent Kd (screen): 1.54 nM

B33: K56Q (designed binder)
chain: SMEEEVEKAAKEYEKKKKEAIEKHLEKLKAKDKEAAERFLKELEEAAKEYAKDEAQTMSEEEAKRRAKKYKEKVLLSELSEEEQKEIKEAEEKLVRTILKYVEEAAK
- apparent Kd (screen): 2.73 nM

B34: A36Y (designed binder)
chain: SMEEEVEKAAKEYEKKKKEAIEKHLEKLKAKDKEAYERFLKELEEAAKEYAKDEAKTMSEEEAKRRAKKYKEKVLLSELSEEEQKEIKEAEEKLVRTILKYVEEAAK
- apparent Kd (screen): 0.539 nM

B35: E12V (designed binder)
chain: SMEEEVEKAAKVYEKKKKEAIEKHLEKLKAKDKEAAERFLKELEEAAKEYAKDEAKTMSEEEAKRRAKKYKEKVLLSELSEEEQKEIKEAEEKLVRTILKYVEEAAK
- apparent Kd (screen): 0.956 nM
